Molecular target: the molecule itself
Test: mass photometry

B1: RADX-N (RADX 43-560, C-terminal truncation construct) (domain or fragment, human, UniProt Q6NSI4 43-560, looked up)
chain: RSWIQKVLEQIMDSPRQCVTPSEVVPVTVLAVQRYLLEDEPRDTVPKPPLYCYDVTISDGVYQEKCYLDPSLNSLVYQNILKVGIQMRISRVSCLYNEKRIGQGILCIDNVHCGETSDSISLETPFRNRAHQEKPERPLRGGKSHYLALWNNEDPYGDIWLTDKQPEEHNFSDTKIISLSHLEMTWTNRRNFPALLVRILHKSKLRYYGKPDKKMIEPYQTFLEVADSSGTVSVIMWNALCPEWYKSLRVGLVLLLQDYSVKKSYPFRIQPVPVDPQIKLISTMEICLNLRDPPTNIIIIPEKQVKPEWRLPKLNHRFTTRSELDDMPENCICDVIGLLVFVGRVQRSKKKENREDFWSYRWIHIADGTSEQPFIVELFSTSQPEIFENIYPMAYFVCTQLKVVRNDNQVPKLLYLTTTNESGVFITGHRGQPYTYDAKVKNFIQWIRTKSDSGEQKNMVIGGYYPYPPVPETFSKYSSSIKVESLLTAISEVRKEIEDLQYREQKRIAIQGIITAIK
stoichiometry N: 2
